The record followed here is patent publication US11136407.

For test [1], the target named is CD9-3×FLAG-rabbitFc-Sortase-biotin (human; rabbit). Description: SPR (IBIS MX96) on CD9 chip.
Test [2] has the same target. Description: SPR, 1:1 model; unit from the legend paragraph 216.
Test [3] has the same target. Briefly: SPR, 1:1 model. Background: Surface plasmon resonance follows binding to a sensor surface in real time, without labels.
The target is the same in test [4]. Description: ELISA, biotinylated CD9-EC2-Fc on streptavidin plate, goat anti-mouse HRP. Background: In an ELISA, binding on a coated surface is turned into a signal by an enzyme label.
Test [5] shares this target. Description: SPR (IBIS MX96), antibody injected over CD9-3×FLAG-rabbitFc-Sortase-biotin chip, 1:1 model.
Test [6] has the same target. Briefly: SPR; rests on the kd set to 0.1*10^-5; unit from the legend paragraph 216.
Test [7] has the same target. Briefly: SPR; * legend: dissociation too low for accurate fitting, a value of 0.1*10^-5 is used.

In test [1], mouse anti-CD9 antibody clone ALB6 showed a fold dissociation against HI9a of 22 fold. The substance also gave a Kd in test [2] of 0.145 nM. In test [3], this substance returned a koff of 2.16e-05 s⁻¹ and a kon of 151000 M⁻¹ s⁻¹. The same substance came in with an EC50 in test [4] of 0.013 µg/mL. This substance also showed a Kd in test [5] of 0.145 nM.

As for mouse anti-CD9 antibody clone HI9a, in test [1], the fold affinity against AT14-012 came out at 19000 fold. Further, the kon in test [3] is 430000 M⁻¹ s⁻¹. The EC50 in test [4] turned out to be 0.02 µg/mL. For the same substance, the Kd is 2.33 pM in test [6] and 0.00233 nM in test [5]. In test [7], this substance had a koff of less than 1e-06 s⁻¹.

What is called Kd is the constant that tells how readily two partners part at equilibrium. A lower Kd goes with a tighter complex. By koff is commonly meant the rate constant with which the complex falls apart. Read a high koff as fast dissociation. One may read the kon as a measure of how fast the partners come together. One may read the EC50 as the concentration that produces a half-maximal response. A high value points to a need for much substance.
